Reference: US12551573B2, “Compositions and methods for the targeting of PCSK9” (Scribe Therapeutics Inc., priority 2022, dated 2026)

B1: CasX 491: catalytically-active CasX variant 491 (protein)
chain: QEIKRINKIRRRLVKDSNTKKAGKTGPMKTLLVRVMTPDLRERLENLRKKPENIPQPISNTSRANLNKLLTDYTEMKKAILHVYWEEFQKDPVGLMSRVAQPASKKIDQNKLKPEMDEKGNLTTAGFACSQCGQPLFVYKLEQVSEKGKAYTNYFGRCNVAEHEKLILLAQLKPEKDSDEAVTYSLGKFGQRALDFYSIHVTKESTHPVKPLAQIAGNRYASGPVGKALSDACMGTIASFLSKYQDIIIEHQKVVKGNQKRLESLRELAGKENLEYPSVTLPPQPHTKEGVDAYNEVIARVRMWVNLNLWQKLKLSRDDAKPLLRLKGFPSFPLVERQANEVDWWDMVCNVKKLINEKKEDGKVFWQNLAGYKRQEALRPYLSSEEDRKKGKKFARYQLGDLLLHLEKKHGEDWGKVYDEAWERIDKKVEGLSKHIKLEEERRSEDAQSKAALTDWLRAKASFVIEGLKEADKDEFCRCELKLQKWYGDLRGKPFAIEAENSILDISGFSKQYNCAFIWQKDGVKKLNLYLIINYFKGGKLRFKKIKPEAFEANRFYTVINKKSGEIVPMEVNFNFDDPNLIILPLAFGKRQGREFIWNDLLSLETGSLKLANGRVIEKTLYNRRTRQDEPALFVALTFERREVLDSSNIKPMNLIGVDRGENIPAVIALTDPEGCPLSRFKDSLGNPTHILRIGESYKEKQRTIQAKKEVEQRRAGGYSRKYASKAKNLADDMVRNTARDLLYYAVTQDAMLIFENLSRGFGRQGKRTFMAERQYTRMEDWLTAKLAYEGLSKTYLSKTLAQYTSKTCSNCGFTITSADYDRVLEKLKKTATGWMTTINGKELKVEGQITYYNRYKRQNVVKDLSVELDRLSEESVNNDISSWTKGRSGEALSLLKKRFSHRPVQEKFVCLNCGFETHADEQAALNIARSWLFLRSQEYKKYQTNKTTGNTDKRAFVETWQSFYRKKLKEVWKPAV
modifications: listed as DNA
B2: scaffold 316: chimeric gRNA scaffold, SEQ ID NO: 1746 (nucleic acid)
guide: ACUGGCGCUUCUAUCUGAUUACUCUGAGCGCCAUCACCAGCGACUAUGUCGUAGUGGGUAAAGCUCCCUCUUCGGAGGGAGCAUCAGAG
modifications: listed as RNA, chemistry not fully specified

What was measured:
B2M locus [1] = assay: B2M repression (HLA-negative cells by flow cytometry) in HEK293T cells transfected with LTRP plasmids; format: cell-based, human; details: for Mean % HLA-negative cells: HEK293T cells, B2M-targeting spacer 7.37
Method: Each construct was tested in triplicate.
Each construct was tested in triplicate. […] Cells were harvested for repression analysis at day 5, day 12, day 21, and day 51 post-transfection.
Each construct was tested in triplicate. […] Cells were harvested for repression analysis at day 8, day 13, day 20, and day 27 post-transfection. […] In addition, cells were also harvested on day 5 post-transfection for gDNA extraction for bisulfite sequencing to assess off-target methylation at the non-targeted VEGFA locus, which was performed using similar methods as described in Example 13.
HEK293T cells were transfected as described in Example 14, except that the cells were transfected with 50 ng each of a plasmid encoding the LTRP construct and a plasmid encoding the gRNA. […] 72 of the 95 top repressor domains were assessed together in one experiment where B2M expression was measured at 7, 14, 19, and 26 days after transfection, and the data shown in Tables 57-60.

HBEGF gene = format: cell-based, human; details: HEK293T; HBEGF-targeting spacer; toxin 0-2000 ng/mL
B2M locus [2] = assay: B2M reactivation by 5-azadC (DNMT1 inhibitor) in transfected HEK293T cells; details: B2M-targeting gRNA, 5-azadC 0-20 uM
Method: These transfected HEK293T cells were subsequently re-seeded at ˜30,000 cells well of a 96-well plate and were treated with 5-aza-2′-deoxycytidine (5-azadC), a DNMT1 inhibitor, at concentrations ranging from 0 μM to 20 μM. […] Treatments for each dose of 5-azadC for each experimental condition were performed in triplicates.

human PCSK9 locus [3] = assay: Editing (indel rate by NGS) at the PCSK9 locus in HepG2 cells transfected with CasX 491 mRNA and gRNA; format: cell-based; details: CasX 491 mRNA + v1 gRNAs, spacers 6.7 and 6.8, 28 hours
Method: (§1) Editing at the PCSK9 locus and consequential effects on secreted PCSK9 levels were assessed for conditions using CasX 491 mRNA co-delivered with a PCSK9-targeting gRNA with scaffold variant 174 compared to conditions where a PCSK9-targeting gRNA with scaffold variant 316 was used. 100 ng of in vitro transcribed mRNA coding for CasX 491 with a P2A and mScarlet fluorescent protein was transfected into HepG2 cells with version 1 (v1) of gRNAs 174-6.7, 174-6.8, 316-6.7, and 316-6.8 (see Table 26) using Lipofectamine™. After a media change, the following were harvested at 28 hours post-transfection: 1) transfected cells were harvested for editing assessment at the PCSK9 locus by NGS (next generation sequencing); and 2) media supernatant was harvested to measure secreted PCSK9 protein levels by ELISA. For editing analysis by NGS, amplicons were amplified from 200 ng of extracted gDNA with a set of primers targeting the PCSK9 locus and processed by NGS (described below). Secreted PCSK9 levels in the media supernatant were also analyzed using a fluorescence resonance energy transfer-based immunoassay from CISBio following the manufacturer's instructions. […]
(§2) V1 through v6 variants of chemically-modified PCSK9-targeting gRNAs (Table 26) were assessed for their effects on editing potency and consequential effects on secreted PCSK9 levels in vitro. […]

human PCSK9 locus [4] = assay: Secreted PCSK9 levels in HepG2 cells transfected with CasX 491 mRNA and gRNA; format: cell-based; details: CasX 491 mRNA + v1 gRNAs, spacers 6.7 and 6.8, 28 hours
Method: as §1, §2

human B2M locus = assay: Editing (indel rate by NGS) at the B2M locus in HepG2 cells treated with LNPs; format: cell-based; details: LNPs with CasX 491 mRNA + gRNA spacer 7.9 (v1), highest dose of 250 ng
Method: ˜50,000 HepG2 cells, cultured in DMEM/F-12 media containing 10% FBS and 1% PenStrep, were seeded per well in a 96-well plate. The next day, seeded cells were treated with varying concentrations of LNPs, which were prepared in six 2-fold serial dilutions starting at 250 ng. These LNPs were formulated to encapsulate CasX 491 mRNA and a B2M-targeting gRNA incorporating either scaffold variant 174 or 316 with spacer 7.9 (v1; see Table 26). […] Briefly, for editing assessment, amplicons were amplified from 200 ng of extracted gDNA with primers targeting the human B2M locus and processed by NGS using similar methods as described in Example 7.

B2M locus [5] = assay: B2M knockout (HLA flow cytometry) in HEK293 cells transduced with AAV; format: cell-based, human; details: spacer 7.37, MOI 1E4, 3E3, 1E3 vg/cell, 5 days
6.7/6.8 target dsDNA [6] = assay: In vitro cleavage assay of CasX 491 RNPs: competent (active) fraction; format: biochemical; details: spacer 6.7 or 6.8, v1; equimolar RNP and DNA target
Method: (§3) Double-stranded DNA (dsDNA) targets were formed by mixing the oligos in a 1:1 ratio in 1× cleavage buffer (20 mM Tris HCl PH 7.5, 150 mM NaCl, 1 mM TCEP, 5% glycerol, 10 mM MgCl2), following by heating to 95° C. for 10 minutes, and then allowing the solution to cool to room temperature. CasX ribonucleoproteins (RNPs) were reconstituted with CasX 491 and the indicated gRNAs at a final concentration of 1 μM with 1.2-fold excess of the indicated gRNA in 1x cleavage buffer. RNPs were allowed to form at 37° C. for 10 minutes.
To determine the competent fraction formed by each gRNA, cleavage reactions were prepared with final RNP concentrations of 100 nM and final target concentrations of 100 nM. Reactions were carried out at 37° C. and initiated by the addition of the labeled target substrate (Table 27). Aliquots were taken at 0.5, 1, 2, 5, 10, and 30 minutes and quenched by adding an equal volume of 95% formamide with 25 mM EDTA. Samples were denatured by heating at 95° C. for 10 minutes and resolved on a 10% urea-PAGE gel. Gels were imaged and quantified as above. […] The plateau of each fit was determined and reported as the active fraction for each RNP in Table 30.

6.7/6.8 target dsDNA [7] = assay: In vitro cleavage assay of CasX 491 RNPs: cleavage rate (kcleave); format: biochemical; details: CasX RNP, 20-fold excess RNP
Method: as §3
The effects of various structural and chemical modifications to the gRNA scaffold on the cleavage rate of CasX 491 RNPs were determined. Cleavage reactions were prepared with final RNP concentrations of 200 nM and final target concentrations of 10 nM, and reactions were carried out at 16° C. and initiated by the addition of the labeled target DNA substrate (Table 27). Aliquots of reactions were taken at 0.25, 0.5, 1, 2, 5, and 10 minutes and quenched by adding an equal volume of 95% formamide with 20 mM EDTA. Samples were denatured at 95° C. for 10 minutes and resolved on a 10% urea-PAGE gel. Gels were imaged on a Typhoon™ laser-scanner platform and quantified using ImageQuant™ TL 8.2 image analysis software (Cytiva™). The apparent first-order rate constant of non-target strand cleavage (kcleave−) was determined for each CasX:gRNA combination.

Molecule	Mean % HLA-negative cells (B2M locus [1]; 6 days post-transfection) [%]	Mean % HLA-negative cells (B2M locus [1]; 13 days post-transfection) [%]	Mean % HLA-negative cells (B2M locus [1]; 20 days post-transfection) [%]	Mean % HLA-negative cells (B2M locus [1]; 27 days post-transfection) [%]	% HLA-negative cells (mean) (B2M locus [1]; HEK293T, 50 days post-transfection, spacer 0.0 (non-targeting)) [%]	% HLA-negative cells (mean) (B2M locus [1]; HEK293T, 50 days post-transfection, spacer 7.37 (B2M)) [%]	% HLA-negative cells (mean) (B2M locus [1]; HEK293T, 73 days post-transfection, spacer 0.0 (non-targeting)) [%]	% HLA-negative cells (mean) (B2M locus [1]; HEK293T, 73 days post-transfection, spacer 7.37 (B2M)) [%]	B2M repression (HLA-negative cells) (B2M locus [1]; HEK293T, LTRP #1, #4, #5 plasmids and controls, scaffold 174 spacer 7.37, time course to 73 days)	repression of B2M expression by day 58 (B2M locus [1]; HEK293T, plasmid with B2M-targeting gRNA scaffold 174 spacer 7.37) [%]	protection from diphtheria toxin (HBEGF gene)	reactivation of the B2M gene upon 5-azadC treatment (B2M locus [2])	increase in editing rate at the PCSK9 locus over scaffold 174 (human PCSK9 locus [3]) [percentage point]	reduction of PCSK9 secretion vs scaffold 174 (human PCSK9 locus [4])	editing level at the B2M locus vs scaffold 174 (human B2M locus)	editing at the B2M locus vs scaffold 235 (B2M locus [5])	active fraction of CasX RNPs, higher than scaffold 174 (6.7/6.8 target dsDNA [6])	cleavage rate vs scaffold 174 (6.7/6.8 target dsDNA [7]; spacer 6.7, v1)	cleavage rate vs scaffold 174 (6.7/6.8 target dsDNA [7]; spacer 6.8, v1)
B1	76.167	81.167	83.633	80.933	0.29	76.57	0.71	73.30	durable silencing of the B2M expression	~75	protects at all doses	did not exhibit reactivation of the B2M gene							
B2													~10	more effective reduction of PCSK9 secretion	nearly two-fold higher	appeared to improve editing at the B2M locus	25-30%	marginally faster cleavage	nearly twice as quickly
